Here are results for five molecules from patent US20220387586A1 (Hoffmann-La Roche, published 2022).

Assay [1] concerns the target T1, biotinylated cynoPD1-ECD-Biotin (cynomolgus, UniProt B0LAJ3 25-170, biotinylated; the site and any Avi or His tag are not stated in the passages shown).
T1 construct: also called cyPD1
Put plainly: ELISA on cyno PD1; row head 'cynomolgus crossreactivity (EC50 [nm])'.

The target of assay [2] is T2, full-length human PD1 on cells (human, UniProt Q15116 25-288).
T2 construct: also called CHO-PD1
T2 sequence (Q15116 25-288 limits assumed): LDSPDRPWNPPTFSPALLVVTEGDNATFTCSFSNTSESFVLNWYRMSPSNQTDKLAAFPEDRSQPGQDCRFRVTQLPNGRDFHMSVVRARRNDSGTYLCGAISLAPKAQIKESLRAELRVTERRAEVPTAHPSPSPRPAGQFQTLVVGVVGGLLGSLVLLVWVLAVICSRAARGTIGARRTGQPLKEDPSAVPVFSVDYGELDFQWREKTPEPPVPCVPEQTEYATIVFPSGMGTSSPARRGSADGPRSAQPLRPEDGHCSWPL
Kind of assay: cell ELISA on CHO-K1 cells expressing full-length human PD1. As to the method:
(to avoid internalization). After washing carefully (1×90 μl/well PBST) cells were fixed by adding 30 μl/well 0.05% Glutaraldehyde (Sigma, Cat.No: G5882, 25%) diluted in 1×PBS-buffer and incubated for 10 min at RT. After washing (3×90 μl/well PBST) 25 μl/well secondary antibody was added for detection: goat-anti-human H+L-POD (JIR, JIR109-036-088)/Sheep-anti-mouse-POD (GE NA9310) followed by 1h incubation at RT on shaker. After washing (3×90 μl/well PBST) 25 μl/well TMB substrate solution (Roche 11835033001) was added and incubated until OD 1.0-2.0. Plates were measured at 370/492 nm.
In general terms: In an ELISA, binding on a coated surface is turned into a signal by an enzyme label.

Assay [3] addresses T3, biotinylated PD1-ECD-AviHis (human, UniProt Q15116 25-170, biotinylated).
T3 construct: also called huPD1; hu PD1; not shown: Avi-His tag
Kind of assay: ELISA (hu PD1, as described above). As to the method:
After washing (3×90 μl/well with PBST-buffer) 25 μl/well goat-anti-human H+L-POD (JIR, JIR109-036-088)/Sheep-anti-mouse-POD (GE Healthcare; NA9310) was added in 1:2000/1:1000 dilution and incubated at RT for 1 h on shaker. After washing (3×90 μl/well with PBST-buffer) 25 μl/well TMB substrate (Roche Catalogue No. 11835033001) was added and incubated until OD 2-3. Measurement took place at 370/492 nm.

The target in assay [4] is T3, biotinylated PD1-ECD-AviHis. Put plainly: ELISA on coated biotinylated PD1-ECD-AviHis.
Assay [5] deals with T4, hu PD1-ECD (human, UniProt Q15116 25-170).
T4 construct: SPR analyte; also called human PD1-ECD
T4 sequence (Q15116 25-170 limits assumed): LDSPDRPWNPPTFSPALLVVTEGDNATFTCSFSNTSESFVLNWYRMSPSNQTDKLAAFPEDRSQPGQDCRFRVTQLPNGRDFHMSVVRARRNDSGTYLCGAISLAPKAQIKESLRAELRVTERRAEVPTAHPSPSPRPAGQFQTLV
Put plainly: SPR; row head 'Affinity KD 37° C.'; first of two numbers. The protocol: (§1) The samples were injected for 20 seconds with a concentration of 10 nM and bound to the second flow cell.
On the technique in general: SPR reads the build-up and loss of mass on a sensor chip optically.

Assay [6] has as its target T1, biotinylated cynoPD1-ECD-Biotin. Kind of assay: ELISA on coated cynoPD1-ECD-Biotin.
Assay [7] has as its target T4, hu PD1-ECD. Kind of assay: SPR; row head 'Affinity KD 37° C.'; second of two numbers, equal to the 25 °C value of Table 3.
Assay [8] has as its target T4, hu PD1-ECD. Kind of assay: SPR (Biacore T200), antibody captured by anti-human IgG, hu PD1-ECD as analyte, 25 °C, 1:1 Langmuir fit. The protocol: Therefore, an anti-human IgG was immobilized by amine coupling to the surface of a (Biacore) CM5 sensor chip. […] The sensor chip surface was regenerated after each analysis cycle. The equilibrium constant and kinetic rate constants were finally gained by fitting the data to a 1:1 langmuir interaction model.
as §1
Finally the double referenced data was fitted to a 1:1 Langmuir interaction model with the Biacore T200 Evaluation Software.

In assay [9] the target is PD1 on PD1+LAG3+ human U2OS cells (UniProt Q15116 25-288). Put plainly: cellular PD1/LAG3 dimerization assay, 7500 PD1+LAG3+ U2OS cells a well, 20 h at 37 °C, chemoluminescence; the signal needs PD1 and LAG3 bound at once. The protocol: Next, assay plates were equilibrated to room temperature and a substrate/buffer mix (PathHunterFlash detection reagent, Discoverx) was added and again incubated for 4h. For measuring chemoluminescence induced upon simultaneous binding and dimerization a SpectraMax L plate reader (Molecular Devices) was used.
Chain of PD1 on PD1+LAG3+ human U2OS cells (Q15116 25-288): as the sequence (Q15116 25-288 limits assumed) above

For assay [10], the target named is T5, LAG3 on cells (recombinant CHO cells expressing Lag3) (human, UniProt P18627 29-525).
T5 sequence: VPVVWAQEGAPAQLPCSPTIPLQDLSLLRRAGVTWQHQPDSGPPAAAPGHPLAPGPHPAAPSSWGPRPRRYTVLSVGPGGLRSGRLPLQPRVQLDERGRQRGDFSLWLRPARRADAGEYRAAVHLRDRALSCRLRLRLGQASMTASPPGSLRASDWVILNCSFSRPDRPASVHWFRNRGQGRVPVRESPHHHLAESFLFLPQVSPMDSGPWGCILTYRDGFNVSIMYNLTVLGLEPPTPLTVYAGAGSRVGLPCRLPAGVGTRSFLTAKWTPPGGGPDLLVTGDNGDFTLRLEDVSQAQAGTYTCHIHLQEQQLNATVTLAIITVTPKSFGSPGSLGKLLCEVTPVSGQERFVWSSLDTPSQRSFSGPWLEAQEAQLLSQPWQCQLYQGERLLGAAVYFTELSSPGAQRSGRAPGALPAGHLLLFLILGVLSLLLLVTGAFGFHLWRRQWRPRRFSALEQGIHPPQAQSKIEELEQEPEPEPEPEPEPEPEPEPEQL
Kind of assay: cell-based or functional assay.

Assay [11] has as its target T2, full-length human PD1 on cells. Put plainly: cell-based or functional assay.
In a further assay the target is T6, biotinylated-Lag3 (UniProt P18627 23-450, limits assumed, biotinylated).
T6 construct: Probably a human LAG3 ECD construct; also called Lag3 (MHCII/ELISA)
T6 sequence (looked up): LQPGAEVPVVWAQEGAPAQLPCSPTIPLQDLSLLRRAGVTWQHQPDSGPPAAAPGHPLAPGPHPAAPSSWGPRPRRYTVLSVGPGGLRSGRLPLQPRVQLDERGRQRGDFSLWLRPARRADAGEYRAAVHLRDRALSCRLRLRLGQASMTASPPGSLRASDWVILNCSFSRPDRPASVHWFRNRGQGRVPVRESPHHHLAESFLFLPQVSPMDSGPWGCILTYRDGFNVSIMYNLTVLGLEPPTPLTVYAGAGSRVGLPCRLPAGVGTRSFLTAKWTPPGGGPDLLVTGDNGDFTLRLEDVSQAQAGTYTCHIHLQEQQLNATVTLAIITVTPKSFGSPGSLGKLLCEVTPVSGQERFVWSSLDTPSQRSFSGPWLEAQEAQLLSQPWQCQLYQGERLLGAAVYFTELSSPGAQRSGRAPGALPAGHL
Put plainly: ELISA, inhibition of biotinylated-Lag3 binding to MHC-II on A375 cells (competitor MHC-II). As to the method: 25 μl/well of A375 cells (10000 cells/well) were seeded into tissue culture treated 384-well plates (Corning, 3701) and incubated at 37° C. overnight. […] After washing (1×90 μl in PBST) cells were fixed by addition of 30 μl/well glutaraldehyde to a final concentration of 0.05% (Sigma Cat.No: G5882), 10 min at room temperature. After washing (3×90 μl/well with PBST-buffer) 25 μl/well Poly-HRP40-Streptavidin (Fitzgerald, 65R-S104PHRPx) was added in a 1:2000 or 1:8000 dilution and incubated at RT for 1 h. After washing (3×90 μl/well with PBST-buffer) 25 μl/well TMB substrate (Roche, #11835033001) was added and incubated for 2 to 10 min. Measurement took place on a Tecan Safire 2 instrument at 370/492 nm.

The next assay addresses T7, cynomolgus LAG3 on cells (cynomolgus).
T7 construct: whole, on cells; also called cyno-LAG-3; cynoLAG3
Put plainly: flow cytometry on activated cynomolgus PBMC, 10 µg/ml (only 2nd Ab (hu): 7.62). As to the method:
Thus, cynomolgus peripheral blood mononuclear cells (PBMC) were prepared from fresh cynomolgus blood and were then activated by CD3/CD28 pre-treatment (1 μg/ml) for 2-3 days. […] After staining, cells were washed two times with PBS/2% FCS and analyzed on a FACS Fortessa (BD).
Background: A flow cytometer gives signals particle by particle.

Assay [12] concerns the target T5, LAG3 on cells (recombinant CHO cells …). Kind of assay: cell-based or functional assay. The source holds these as a separate data set.

T1 sequence (B0LAJ3 entry or part of it limits assumed): as the sequence (Q15116 25-170 limits assumed) above, with D2E, P10A, V19L, T35A, Q75R, T144A counted along it
T3 sequence (Q15116 25-170): as the sequence (Q15116 25-170 limits assumed) above

B1: PD1-0103-0312 (antibody, human IgG1, V domains shown)
VH: EVQLLESGGGLVQPGGSLRLSCAASGFSFSSYTMSWVRQAPGKGLEWVATISGGGRDIYYPDSVKGRFTISRDNSKNTLYLQMNSLRAEDTAVYYCVLLTGRVYFALDSWGQGTLVTVSS
VL: DIVMTQSPDSLAVSLGERATINCKASESVDTSDNSFIHWYQQKPGQSPKLLIYRSSTLESGVPDRFSGSGSGTDFTLTISSLQAEDVAVYYCQQNYDVPWTFGQGTKVEIK
notes: Humanized; also called PD1-103-0312; PD-0103-0312
Consider B1, for which the concentration for a half-maximal effect (EC50) (as a rule, the concentration that produces a half-maximal response) in [1] was determined as 0.08 nM; in assay [2] it was 0.0101 µg/mL; in [3] it was 0.1 nM; in assay [4], 0.011 µg/mL; in assay [6], 0.0083 µg/mL. Besides, the dissociation constant Kd (in general, the equilibrium constant for the complex coming apart) with hu PD1-ECD [5] turned out to be 1.5 nM; with hu PD1-ECD [7], 1.8 nM; with hu PD1-ECD [8] it was 1.8 nM. For the same molecule, in the assay with hu PD1-ECD [8], the off-rate (koff) (commonly the rate constant with which the complex falls apart) amounted to 0.000345 s⁻¹. Besides, in the assay with hu PD1-ECD [8], the on-rate constant (kon) (as a rule, the rate constant with which the complex forms) worked out at 195000 M⁻¹ s⁻¹.

B2: PD1-0103-0313 (antibody, human IgG1, V domains shown)
VH: B1 VH
VL: DVVMTQSPLSLPVTLGQPASISCRASESVDTSDNSFIHWYQQRPGQSPRLLIYRSSTLESGVPDRFSGSGSGTDFTLKISRVEAEDVGVYYCQQNYDVPWTFGQGTKVEIK
notes: Humanized; also called PD1-103-0313; PD-0103-0313
B2: the 50% effective concentration (EC50) in assay [1] was 0.06 nM; in assay [2], 0.0108 µg/mL; in assay [3], 0.07 nM; in assay [4] it was 0.015 µg/mL; in [6], 0.011 µg/mL. For the same molecule, the dissociation constant Kd with hu PD1-ECD [5] is 1.9 nM; in the assay with hu PD1-ECD [7], 2.3 nM; with hu PD1-ECD [8], 2.3 nM. The molecule also gave a dissociation rate constant (koff) in the assay with hu PD1-ECD [8] of 0.000367 s⁻¹. In addition, in the assay with hu PD1-ECD [8], the association rate constant (kon) was 160000 M⁻¹ s⁻¹.

B3: PD1/LAG3 0750 (bispecific antibody, human IgG1, kappa, L234A L235A)
heavy 1: not shown
heavy 2: EVQLLESGGGLVQPGGSLRLSCAASGFIFDDYTMNWVRQAPGKGLEWVAVISWDGGGTYYTDSVKGRFTISRDDFKNTLYLQMNSLRAEDTAVYYCAKGLTDTTLYGSDYWGQGTLVTVSSASTKGPSVFPLAPSSKSTSGGTAALGCLVEDYFPEPVTVSWNSGALTSGVHTFPAVLQSSGLYSLSSVVTVPSSSLGTQTYICNVNHKPSNTKVDEKVEPKSCDKTHTCPPCPAPEAAGGPSVFLFPPKPKDTLMISRTPEVTCVVVDVSHEDPEVKFNWYVDGVEVHNAKTKPREEQYNSTYRVVSVLTVLHQDWLNGKEYKCKVSNKALGAPIEKTISKAKGQPREPQVCTLPPSRDELTKNQVSLSCAVKGFYPSDIAVEWESNGQPENNYKTTPPVLDSDGSFFLVSKLTVDKSRWQQGNVFSCSVMHEALHNHYTQKSLSLSPGKGGGGSGGGGSEVQLLESGGGLVQPGGSLRLSCAASGFIFDDYTMNWVRQAPGKGLEWVAVISWDGGGTYYTDSVKGRFTISRDDFKNTLYLQMNSLRAEDTAVYYCAKGLTDTTLYGSDYWGQGTLVTVSSASTKGPSVFPLAPSSKSTSGGTAALGCLVEDYFPEPVTVSWNSGALTSGVHTFPAVLQSSGLYSLSSVVTVPSSSLGTQTYICNVNHKPSNTKVDEKVEPKSC
light 1: EVQLLESGGGLVQPGGSLRLSCAASGFSFSSYTMSWVRQAPGKGLEWVATISGGGRDIYYPDSVKGRFTISRDNSKNTLYLQMNSLRAEDTAVYYCVLLTGRVYFALDSWGQGTLVTVSSASVAAPSVFIFPPSDEQLKSGTASVVCLLNNFYPREAKVQWKVDNALQSGNSQESVTEQDSKDSTYSLSSTLTLSKADYEKHKVYACEVTHQGLSSPVTKSFNRGEC
light 2: not shown
notes: 2+1 trans format: one LAG3 Fab N-terminal, one fused to the C-terminus of the Fc hole chain; also called 1 + 2 trans
Turning to B3, the EC50 (read off the curve) (commonly the midpoint of the concentration-response curve) in assay [9] is around 0.06 nM. For the same molecule, the “EC50 [nM], PD-1 & LAG-3 combo reporter assay (NFAT luciferase)” value in assay [10] and in assay [11] was 0.6 nM throughout.

B4: humanized BAP050 (LAG525) (antibody, V domains shown)
VH: QIQLVQSGPELKKPGETVKISCKASGFTLTNYGMNWVRQTPGKGLKWMGWINTDTGEPTYADDFKGRFAFSLETSASTASLQINNLKNADTATYFCARNPPYYYGTNNAEAMDYWGQGTTVTVSS
VL: DIQMTQTTSSLSASLGDRVTISCSSSQDISNYLNWYQQKPDGTVKVLIYYTSTLHLGVPSRFSGSGSGTDYSLTISNLELEDIATYYCQQYYNLPWTFGQGTKVEIK
notes: also called aLAG3(BAP050)
As for B4, the concentration for half-maximal inhibition (IC50) (commonly the concentration at which inhibition is half-maximal) with biotinylated-Lag3 turned out to be 1 nM. Moreover, the “% positive cyno cells (PBLs) after CD3/CD28 activation” value with cynomolgus LAG3 on cells came out at 50.7%. Also, in assay [12], the “EC50 [nM] in Jurkat LAG3 + SED + Raji (NFAT luciferase), 2nd assay” value was 22.6 nM.

B5: Reference LAG3 antibody BMS-986016 (antibody, V domains shown)
VH: QVQLQQWGAGLLKPSETLSLTCAVYGGSFSDYYWNWIRQPPGKGLEWIGEINHRGSTNSNPSLKSRVTLSLDTSKNQFSLKLRSVTAADTAVYYCAFGYSDYEYNWFDPWGQGTLVTVSS
VL: EIVLTQSPATLSLSPGERATLSCRASQSISSYLAWYQQKPGQAPRLLIYDASNRATGIPARFSGSGSGTDFTLTISSLEPEDFAVYYCQQRSNWPLTFGQGTNLEIK
notes: also called aLAG3(BMS986016)
As for B5, the “% positive cyno cells (PBLs) after CD3/CD28 activation” value with cynomolgus LAG3 on cells was found to be 18.6%.
